Results from patent US20250197491A1 (MACOMICS, published 2025).
Substitutions are numbered along the chain they refer to.

B1: Antibody 3 (antibody, V domains shown)
VH: QVQLVQSGAEVKKPGASVKVSCKASGYTFTSYGISWVRQAPGQGLEWMGWISAYNGNTNYAQKLQGRVTMTTDTSTSTAYMELRSLRSDDTAVYYCARSYSGSHWWFDPWGQGTLVTVSS
VL: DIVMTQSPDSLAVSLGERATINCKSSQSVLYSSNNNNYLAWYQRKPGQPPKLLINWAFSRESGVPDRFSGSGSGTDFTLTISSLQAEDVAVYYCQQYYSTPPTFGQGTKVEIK
notes: Fully human antibody; IgG4; also called Clone 3; Antibody Clone 3
B2: Antibody 4 (antibody, V domains shown)
VH: B1 VH with H104Y
VL: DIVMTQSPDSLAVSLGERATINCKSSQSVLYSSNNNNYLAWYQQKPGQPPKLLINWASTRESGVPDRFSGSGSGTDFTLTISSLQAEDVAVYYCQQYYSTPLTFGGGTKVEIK
notes: Fully human antibody; IgG4; also called Clone 4; Antibody Clone 4
B3: Antibody 1 (antibody, V domains shown)
VH: QVQLVESGGGLVKPGGSLRLSCAASGFTFSDYYMSWIRQAPGKGLEWVSYISSSGSIKKYADSVKGRFTISRDNAKNSLYLQMNSLRGEDTAVYYCARTNWHFDYWGQGTLVTVSS
VL: EIVLTQSPGTLSLSPGERATLSCRASQSVSSSYLAWYQQKPGQAPRLLIFGASTRATGIPDRFSGSGSGTDFTLTISRLEPEDVAVYYCQQYYSTPFTFGPGTKVDIK
notes: Fully human antibody expressed in CHO; also called Clone 1; Antibody Clone 1
B4: Antibody 5 (antibody, V domains shown)
VH: QVQLVESGGGLVKPGGSLRLSCAASGFTFSDYYMTWIRQAPGKGLEWVSYISISGITRYYADSVKGRFTISRDNAKNSLYLQMNSLRAEDTAVYYCARDQTGYFDYWGQGTLVTVSS
VL: DIVMTQSPATLSVSPGEKTTLSCRASQSFSSNLAWYQQKPGQAPRLLIYGASTRATGIPARFSGSGSGTEFTLTISSLQSEDFAVYYCQQYINWPHTFGQGTKVEIK
notes: Fully human antibody; IgG4; also called Clone 5; Antibody Clone 5

molecular target: T1, human LILRB1 ectodomain fused to mIgG2a Fc (human); assay: summary table (ELISA); Y = Yes
T1 construct: also called human LILRB1-mIgG2a; full length LILRB1 ectodomain
T1 sequence (chain, as listed by the source limits assumed): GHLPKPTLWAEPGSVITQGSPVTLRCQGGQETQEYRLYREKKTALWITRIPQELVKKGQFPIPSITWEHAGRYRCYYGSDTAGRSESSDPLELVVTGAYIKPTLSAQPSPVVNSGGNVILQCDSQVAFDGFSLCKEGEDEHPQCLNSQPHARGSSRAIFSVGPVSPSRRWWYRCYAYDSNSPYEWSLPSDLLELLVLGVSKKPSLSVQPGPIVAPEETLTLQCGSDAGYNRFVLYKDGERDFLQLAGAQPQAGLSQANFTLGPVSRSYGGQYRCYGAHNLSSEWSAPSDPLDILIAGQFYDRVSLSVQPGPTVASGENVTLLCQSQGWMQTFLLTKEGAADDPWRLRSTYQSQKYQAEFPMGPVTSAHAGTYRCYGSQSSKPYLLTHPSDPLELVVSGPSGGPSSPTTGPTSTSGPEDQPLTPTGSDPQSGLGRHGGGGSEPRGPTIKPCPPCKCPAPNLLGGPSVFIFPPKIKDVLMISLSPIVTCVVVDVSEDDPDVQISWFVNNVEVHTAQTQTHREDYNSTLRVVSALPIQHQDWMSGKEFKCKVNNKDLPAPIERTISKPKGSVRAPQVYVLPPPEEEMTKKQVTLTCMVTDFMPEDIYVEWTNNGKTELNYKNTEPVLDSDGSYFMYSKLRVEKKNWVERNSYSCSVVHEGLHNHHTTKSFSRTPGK

binding result | Binder
binds | B1
binds | B2
binds | B3
binds | B4

molecular target: T2, Human LILRB1(L68P/A93T) ectodomain fused to mIgG2aFc (human); assay: ELISA, antigen coated, 10 nM antibody
T2 construct: The entry already carries the two substitutions
T2 sequence (chain, as listed by the source L68P A93T L68P A93T limits assumed): as the sequence (chain, as listed by the source limits assumed) above, with L45P, A70T counted along it
Description: (§1) FIG. 3. Mixed LILRB1 and LILRB2 expression in TAMs from melanoma cancer patients. Analysis of LILRB1 and LILRB2 detection in macrophages in pre- and post-anti-PD-1 and/or anti-CTLA-4 therapy treated melanoma patients (n=33) is shown using Smart-seq2 data from Sade-Feldman et al. https://pubmed.ncbi.nlm.nih.gov/30633907/FIG. 4. Binding to domains of human LILRB1. Plates were coated with recombinant full length LILRB1 ectodomain (SEQ ID NO: 41) or a protein comprising domain 1 and 2 of human LILRB1 protein (SEQ ID NO: 42), and then incubated with 10 nM Clones 1-5, Reference Ab 1, and Isotype control. The bound antibodies were detected using HRP-labeled secondary antibodies and the results were plotted on the graph as absorbance measured at 450 nm.
(§2) Binding to allelic forms of LILRB1. There are 4 major allelic variants of human LILRB1 protein ectodomain. The variants of LILRB1 were expressed as recombinant proteins comprising a modified LILRB1 ectodomain and mouse IgG2 Fc region (SEQ ID NO: 50 and 51) in suspension CHO cells, and purified by using techniques that were known in the art. These recombinant proteins were then used in the direct enzyme-linked immunosorbent assay (ELISA) to determine the antibodies potential to bind different allelic forms of LILRB1. In short, Maxisorp (Nunc) or similar immune-assay plates were coated with solutions of target proteins in PBS, at 4° C., overnight. Plates were then washed with PBS, blocked with 5% milk in PBS, and washed again. Test antibodies diluted in PBS were then added to the plates and incubated at room temperature for at least 1h. Plates were subsequently washed with PBS/0.05% Tween-20 (PBST) and incubated with a solution of horse radish peroxidase (HRP) labelled secondary antibodies at room temperature for at least 1 h. After washing with PBST and PBS, bound antibodies were detected using the 3,3′,5,5;-tetramethylbenzidine (TMB) chromogenic solution. After 5 to 10 minutes, the reaction was stopped with 1% sulphuric acid and absorbance read at 450 nm.
(§3) There are four major allelic variants within the ecto-domain of LILRB1 in human population [Human Molecular Genetics, 2005, Vol. 14, 2469-2480]; namely c.203T>C (L68P), c.277G>A (A93T), c.425T>C (I142T), and c.464G>T (S155I).

binding result | Binder
binds | B1
binds | B2
binds | B3
binds | B4

molecular target: T3, Human LILRB1(I142T/S155I) ectodomain fused to mIgG2aFc (human); assay: ELISA, antigen coated, 10 nM antibody
T3 construct: The entry already carries the two substitutions
T3 sequence (chain, as listed by the source I142T S155I I142T S155I limits assumed): as the sequence (chain, as listed by the source limits assumed) above, with I119T, S132I counted along it
Description: as §1, §2, §3

binding result | Binder
binds | B1
binds | B2
binds | B3
binds | B4

molecular target: T4, Human LILRA2 ectodomain (human, UniProt Q8N149 24-449); assay: summary table (single point ELISA); N = No
T4 construct: Recombinant protein from a commercial source
T4 sequence (Q8N149 24-449 S135L): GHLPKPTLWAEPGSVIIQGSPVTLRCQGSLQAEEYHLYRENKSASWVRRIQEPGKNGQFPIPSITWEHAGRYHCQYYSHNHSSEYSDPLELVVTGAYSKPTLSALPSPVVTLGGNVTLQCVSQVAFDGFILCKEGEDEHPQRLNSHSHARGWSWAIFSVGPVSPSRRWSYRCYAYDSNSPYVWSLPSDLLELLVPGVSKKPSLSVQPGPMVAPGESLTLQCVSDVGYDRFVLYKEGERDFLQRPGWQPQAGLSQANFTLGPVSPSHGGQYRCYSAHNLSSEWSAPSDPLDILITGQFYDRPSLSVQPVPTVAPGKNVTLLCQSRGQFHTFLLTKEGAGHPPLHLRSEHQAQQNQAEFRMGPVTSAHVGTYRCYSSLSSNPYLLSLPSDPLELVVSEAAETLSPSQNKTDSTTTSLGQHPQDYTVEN

binding result | Binder
no binding (tested: 1 nM) | B1
no binding (tested: 1 nM) | B2
no binding (tested: 1 nM) | B3
no binding (tested: 1 nM) | B4

molecular target: LILRB4 recombinant, full-length ectodomain (LILRB4 17-257) (human, UniProt Q8NHJ6 22-257); assay: summary table (single point ELISA); N = No

binding result | Binder
no binding (tested: 1 nM) | B1
no binding (tested: 1 nM) | B2
no binding (tested: 1 nM) | B3
no binding (tested: 1 nM) | B4

molecular target: LILRB5 recombinant, full-length ectodomain (LILRB5 18-456) (human, UniProt O75023 24-456); assay: summary table (single point ELISA); N = No

binding result | Binder
no binding (tested: 1 nM) | B1
no binding (tested: 1 nM) | B2
no binding (tested: 1 nM) | B3
no binding (tested: 1 nM) | B4

molecular target: LILRA5 recombinant, full-length ectodomain (LILRA5 42-268) (human, UniProt A6NI73 42-268); assay: summary table (single point ELISA); N = No
Sequence (A6NI73 42-268): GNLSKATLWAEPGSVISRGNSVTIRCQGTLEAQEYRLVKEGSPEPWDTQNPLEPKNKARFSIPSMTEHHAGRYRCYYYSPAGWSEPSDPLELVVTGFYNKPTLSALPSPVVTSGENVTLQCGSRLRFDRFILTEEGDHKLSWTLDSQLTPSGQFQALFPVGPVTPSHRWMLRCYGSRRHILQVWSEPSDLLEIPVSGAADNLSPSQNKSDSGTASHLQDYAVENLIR

binding result | Binder
no binding (tested: 1 nM) | B1
no binding (tested: 1 nM) | B2
no binding (tested: 1 nM) | B3
no binding (tested: 1 nM) | B4

molecular target: T5, Human LILRA1 ectodomain (human, UniProt O75019 17-461); assay: multi-point ELISA, antigen coated, apparent EC50
T5 construct: Recombinant protein from a commercial source
T5 sequence (O75019 17-461): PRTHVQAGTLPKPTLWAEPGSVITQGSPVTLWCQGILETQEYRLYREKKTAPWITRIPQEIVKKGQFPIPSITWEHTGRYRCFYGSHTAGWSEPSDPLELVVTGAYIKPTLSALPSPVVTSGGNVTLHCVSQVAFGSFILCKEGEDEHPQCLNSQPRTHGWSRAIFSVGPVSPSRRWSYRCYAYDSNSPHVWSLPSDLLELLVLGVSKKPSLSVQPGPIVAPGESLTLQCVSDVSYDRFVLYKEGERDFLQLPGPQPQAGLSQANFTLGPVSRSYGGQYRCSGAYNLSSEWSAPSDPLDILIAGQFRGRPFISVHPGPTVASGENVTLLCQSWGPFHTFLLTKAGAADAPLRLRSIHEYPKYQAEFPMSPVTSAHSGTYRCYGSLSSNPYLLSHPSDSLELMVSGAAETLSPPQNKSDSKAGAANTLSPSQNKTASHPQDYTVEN
Experimental: (§4) FIG. 32. Binding of Clones 1-5 to selected LILR family members tested by multiple point ELISA. Recombinant LILRB1, LILRB2, LILRB3, LILRA1, LILRA3, LILRA4, and LILRA6, or irrelevant control protein were coated on the ELISA plates. The plates were then blocked with milk in PBST. Next, the plates were incubated with serial dilutions (12.5 nM to 0.02 nM) of Clones 1-5 (A-E). Bound antibodies were detected using HRP-conjugated anti-human Fc antibodies and the chromogenic substrate.
as §4, with “Binding of” for “FIG. 32. Binding of”, “point ELISA. (FIG. 32) Recombinant LILRB1,” for “point ELISA. Recombinant LILRB1,”, “LILRA3, LILRA4, LILRA6, or” for “LILRA3, LILRA4, and LILRA6, or”, “nM) of Clone 1-5 (A-E).” for “nM) of Clones 1-5 (A-E).”

EC50 | Binder
1.76 nM | B1
4.1 nM | B2
2.38 nM | B3
9.07 nM | B4

molecular target: T6, Human full length LILRA3 (human, UniProt Q8N6C8 24-439); assay: multi-point ELISA, antigen coated, apparent EC50
T6 construct: Commercial recombinant protein; also the parent of the LILRA3 peptide microarrays
T6 sequence (Q8N6C8 24-439 A105V limits assumed): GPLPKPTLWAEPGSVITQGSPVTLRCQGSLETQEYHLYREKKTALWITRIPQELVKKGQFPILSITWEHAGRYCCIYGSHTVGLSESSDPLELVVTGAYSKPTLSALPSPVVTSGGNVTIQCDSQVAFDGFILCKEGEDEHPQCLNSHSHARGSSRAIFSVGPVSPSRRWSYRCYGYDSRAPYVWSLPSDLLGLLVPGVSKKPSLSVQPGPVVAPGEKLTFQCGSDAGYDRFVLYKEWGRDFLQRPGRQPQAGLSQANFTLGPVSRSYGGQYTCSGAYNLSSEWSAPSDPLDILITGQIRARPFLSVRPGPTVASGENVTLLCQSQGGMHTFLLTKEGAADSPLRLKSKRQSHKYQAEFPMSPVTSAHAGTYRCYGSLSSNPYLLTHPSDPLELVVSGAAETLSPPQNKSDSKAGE
Experimental: as §4
as §4, with “Binding of” for “FIG. 32. Binding of”, “point ELISA. (FIG. 32) Recombinant LILRB1,” for “point ELISA. Recombinant LILRB1,”, “LILRA3, LILRA4, LILRA6, or” for “LILRA3, LILRA4, and LILRA6, or”, “nM) of Clone 1-5 (A-E).” for “nM) of Clones 1-5 (A-E).”

EC50 | Binder
1.2 nM | B1
1.42 nM | B2
0.97 nM | B3
1.26 nM | B4

molecular target: LILRB1 recombinant, full-length ectodomain (human, UniProt Q8NHL6 24-461); assay: multi-point ELISA, antigen coated, apparent EC50
Sequence (Q8NHL6 24-461 limits assumed): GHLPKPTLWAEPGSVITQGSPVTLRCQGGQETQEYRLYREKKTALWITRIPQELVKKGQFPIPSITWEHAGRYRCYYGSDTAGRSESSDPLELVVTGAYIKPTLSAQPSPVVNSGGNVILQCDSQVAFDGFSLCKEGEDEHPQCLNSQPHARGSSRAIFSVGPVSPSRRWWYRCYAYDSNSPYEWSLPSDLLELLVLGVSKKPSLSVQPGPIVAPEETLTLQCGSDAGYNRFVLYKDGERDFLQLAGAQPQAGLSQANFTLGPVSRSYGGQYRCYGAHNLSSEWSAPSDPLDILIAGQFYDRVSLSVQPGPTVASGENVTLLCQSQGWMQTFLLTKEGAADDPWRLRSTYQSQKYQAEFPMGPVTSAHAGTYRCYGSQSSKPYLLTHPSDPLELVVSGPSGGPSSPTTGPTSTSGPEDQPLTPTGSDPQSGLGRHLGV
Experimental: as §4
as §4, with “Binding of” for “FIG. 32. Binding of”, “point ELISA. (FIG. 32) Recombinant LILRB1,” for “point ELISA. Recombinant LILRB1,”, “LILRA3, LILRA4, LILRA6, or” for “LILRA3, LILRA4, and LILRA6, or”, “nM) of Clone 1-5 (A-E).” for “nM) of Clones 1-5 (A-E).”

EC50 | Binder
1.38 nM | B1
1.24 nM | B2
0.55 nM | B3
0.99 nM | B4

molecular target: LILRB2 recombinant, full-length ectodomain (LILRB2 22-458) (human, UniProt Q8N423 22-458); assay: multi-point ELISA, antigen coated, apparent EC50
Sequence (Q8N423 22-458): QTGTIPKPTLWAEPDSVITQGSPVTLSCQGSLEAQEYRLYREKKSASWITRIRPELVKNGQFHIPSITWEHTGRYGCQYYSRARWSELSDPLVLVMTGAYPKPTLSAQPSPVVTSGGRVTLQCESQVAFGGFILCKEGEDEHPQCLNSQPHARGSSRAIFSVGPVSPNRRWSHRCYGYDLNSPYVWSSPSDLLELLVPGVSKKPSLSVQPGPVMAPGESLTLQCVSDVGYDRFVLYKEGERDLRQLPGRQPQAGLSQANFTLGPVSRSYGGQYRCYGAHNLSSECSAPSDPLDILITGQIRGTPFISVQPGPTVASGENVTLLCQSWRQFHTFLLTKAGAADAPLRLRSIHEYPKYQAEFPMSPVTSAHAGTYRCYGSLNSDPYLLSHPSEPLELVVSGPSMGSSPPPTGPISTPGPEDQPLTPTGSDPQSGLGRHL
Experimental: as §4
as §4, with “Binding of” for “FIG. 32. Binding of”, “point ELISA. (FIG. 32) Recombinant LILRB1,” for “point ELISA. Recombinant LILRB1,”, “LILRA3, LILRA4, LILRA6, or” for “LILRA3, LILRA4, and LILRA6, or”, “nM) of Clone 1-5 (A-E).” for “nM) of Clones 1-5 (A-E).”

EC50 | Binder
1.28 nM | B1
1.39 nM | B2
0.73 nM | B3
1.04 nM | B4

molecular target: LILRB3 recombinant, full-length ectodomain (LILRB3 24-443) (human, UniProt O75022 24-443); assay: multi-point ELISA, antigen coated, apparent EC50
Sequence (O75022 24-443): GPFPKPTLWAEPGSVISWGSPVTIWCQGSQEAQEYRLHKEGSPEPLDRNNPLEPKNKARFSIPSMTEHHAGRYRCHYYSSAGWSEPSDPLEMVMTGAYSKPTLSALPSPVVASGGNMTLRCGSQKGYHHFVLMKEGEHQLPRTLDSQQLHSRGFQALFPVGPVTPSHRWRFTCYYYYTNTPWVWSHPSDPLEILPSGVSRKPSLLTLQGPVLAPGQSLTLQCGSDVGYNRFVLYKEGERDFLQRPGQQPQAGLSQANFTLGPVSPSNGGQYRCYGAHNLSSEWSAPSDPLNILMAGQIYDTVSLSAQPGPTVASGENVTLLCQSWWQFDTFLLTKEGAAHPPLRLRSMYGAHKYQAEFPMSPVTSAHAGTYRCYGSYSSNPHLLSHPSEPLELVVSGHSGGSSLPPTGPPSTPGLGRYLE
Experimental: as §4
as §4, with “Binding of” for “FIG. 32. Binding of”, “point ELISA. (FIG. 32) Recombinant LILRB1,” for “point ELISA. Recombinant LILRB1,”, “LILRA3, LILRA4, LILRA6, or” for “LILRA3, LILRA4, and LILRA6, or”, “nM) of Clone 1-5 (A-E).” for “nM) of Clones 1-5 (A-E).”

EC50 | Binder
1.75 nM | B1
1.38 nM | B2
2 nM | B3
0.99 nM | B4

molecular target: LILRA4 recombinant, full-length ectodomain (LILRA4 24-446) (human, UniProt P59901 24-446); assay: multi-point ELISA, antigen coated, apparent EC50
Sequence (P59901 24-446): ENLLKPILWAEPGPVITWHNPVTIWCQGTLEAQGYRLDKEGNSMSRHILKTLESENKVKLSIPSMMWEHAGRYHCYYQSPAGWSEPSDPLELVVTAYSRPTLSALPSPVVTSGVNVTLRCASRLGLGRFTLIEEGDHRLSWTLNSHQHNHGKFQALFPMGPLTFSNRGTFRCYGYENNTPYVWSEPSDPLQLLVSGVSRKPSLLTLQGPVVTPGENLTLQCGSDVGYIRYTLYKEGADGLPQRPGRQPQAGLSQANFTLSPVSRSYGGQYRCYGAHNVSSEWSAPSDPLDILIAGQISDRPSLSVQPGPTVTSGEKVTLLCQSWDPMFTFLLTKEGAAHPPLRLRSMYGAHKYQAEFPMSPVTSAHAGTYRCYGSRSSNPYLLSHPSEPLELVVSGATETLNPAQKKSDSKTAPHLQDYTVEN
Experimental: as §4
as §4, with “Binding of” for “FIG. 32. Binding of”, “point ELISA. (FIG. 32) Recombinant LILRB1,” for “point ELISA. Recombinant LILRB1,”, “LILRA3, LILRA4, LILRA6, or” for “LILRA3, LILRA4, and LILRA6, or”, “nM) of Clone 1-5 (A-E).” for “nM) of Clones 1-5 (A-E).”

EC50 | Binder
1.15 nM | B1
1.38 nM | B2
0.81 nM | B3
0.84 nM | B4

molecular target: LILRA6 recombinant, full-length ectodomain (LILRA6 24-447) (human, UniProt Q6PI73 24-447); assay: multi-point ELISA, antigen coated, apparent EC50
Sequence (Q6PI73 24-447): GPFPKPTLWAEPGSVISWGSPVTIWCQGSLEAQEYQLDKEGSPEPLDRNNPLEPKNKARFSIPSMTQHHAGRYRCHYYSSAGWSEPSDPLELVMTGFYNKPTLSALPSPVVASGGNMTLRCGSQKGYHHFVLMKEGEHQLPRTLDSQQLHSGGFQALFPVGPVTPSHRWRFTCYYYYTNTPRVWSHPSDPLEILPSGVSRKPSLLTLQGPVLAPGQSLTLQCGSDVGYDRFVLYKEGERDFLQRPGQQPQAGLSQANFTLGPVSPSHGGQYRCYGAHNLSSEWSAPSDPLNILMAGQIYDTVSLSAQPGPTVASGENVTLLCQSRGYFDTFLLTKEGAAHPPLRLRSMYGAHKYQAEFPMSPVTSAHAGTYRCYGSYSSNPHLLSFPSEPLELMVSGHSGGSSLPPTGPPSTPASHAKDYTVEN
Experimental: as §4
as §4, with “Binding of” for “FIG. 32. Binding of”, “point ELISA. (FIG. 32) Recombinant LILRB1,” for “point ELISA. Recombinant LILRB1,”, “LILRA3, LILRA4, LILRA6, or” for “LILRA3, LILRA4, and LILRA6, or”, “nM) of Clone 1-5 (A-E).” for “nM) of Clones 1-5 (A-E).”

EC50 | Binder
1.69 nM | B1
2.2 nM | B2
1.81 nM | B3
0.97 nM | B4

molecular target: T7, Rhesus monkey (Macaca mulatta) LILRB ectodomain fused to mIgG2a Fc (rhesus monkey (Macaca mulatta)); assay: summary table (ELISA); Rhesus & Cyno LILRB1/2 binding; Y = Yes
T7 construct: also called rhesus LILRB-mIgG2a; rhesus LILRB protein

binding result | Binder
binds | B1
binds | B2
binds | B3
binds | B4
